From patent US20140322759
Positions count from the first letter of the chain named.

Key:
Experiment in all cases: EMSA
[1] = target: T1, phi29 DNA polymerase wild-type (Bacillus phage phi29) (UniProt P03680); conditions: SD 5.7; unit not printed in table (enzyme titrated 0-600 μM, 2 μM DNA as printed); Tris-acetate pH 7.9, 66 mM K-acetate, no Mg listed, 30 C
T1 sequence: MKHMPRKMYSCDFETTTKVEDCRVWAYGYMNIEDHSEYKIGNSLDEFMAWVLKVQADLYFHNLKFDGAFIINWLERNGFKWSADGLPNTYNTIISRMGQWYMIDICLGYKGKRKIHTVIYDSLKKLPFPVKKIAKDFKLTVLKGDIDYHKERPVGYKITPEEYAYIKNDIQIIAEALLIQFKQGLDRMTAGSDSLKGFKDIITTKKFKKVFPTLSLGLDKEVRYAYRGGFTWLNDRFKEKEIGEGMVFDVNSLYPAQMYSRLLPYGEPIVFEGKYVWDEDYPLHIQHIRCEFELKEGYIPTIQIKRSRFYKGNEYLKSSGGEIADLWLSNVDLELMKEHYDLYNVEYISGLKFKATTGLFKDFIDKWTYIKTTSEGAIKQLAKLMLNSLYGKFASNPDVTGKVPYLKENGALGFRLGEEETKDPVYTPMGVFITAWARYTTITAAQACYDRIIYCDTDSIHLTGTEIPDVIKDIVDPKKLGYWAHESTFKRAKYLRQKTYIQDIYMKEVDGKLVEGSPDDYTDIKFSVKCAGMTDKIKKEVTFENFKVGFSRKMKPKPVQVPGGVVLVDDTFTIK

[2] = target: T2, phi29 DNA polymerase E221K E221K (Bacillus phage phi29) (UniProt P03680); conditions: SD 18.4; unit not given (μM in assay); pH 7.9, 66 mM K-acetate, 30 C
T2 sequence: T1 sequence with E221K

[3] = target: T3, phi29 DNA polymerase M8R M8R (Bacillus phage phi29) (UniProt P03680); conditions: SD 2.1; unit not given (μM in assay); pH 7.9, 66 mM K-acetate, 30 C
T3 sequence: T1 sequence with M8R

[4] = target: T4, phi29 DNA polymerase M97T M97T (Bacillus phage phi29) (UniProt P03680); conditions: SD 2.5; unit not given (μM in assay); pH 7.9, 66 mM K-acetate, 30 C
T4 sequence: T1 sequence with M97T

Sequence: GATCACAGTGAGTAC / TCTATTGTACTCACTGTGATC [15-mer/21-mer primer/template]
- Kd [1]: 76 µM
- Kd [2]: 67 µM
- Kd [3]: 43 µM
- Kd [4]: 37 µM
